In the nanobody polyreactivity screen of Harvey et al. (2022):

Test: yeast display, Sf9 membrane polyspecificity reagent, FACS + sequencing; frameworks hold sequencing errors
Method in brief: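 Nanobodies came from a synthetic yeast display library in Saccharomyces cerevisiae BJ5465, induced with galactose for 36–48 hours and stained for 1 hour at 4 °C with 10% biotinylated, detergent-solubilized Sf9 membrane reagent. Cells were enriched on streptavidin microbeads and then FACS-sorted, with low and high (top ~1%) gates set on anti-HA fluorescence for expression and streptavidin fluorescence for reagent binding. Each polyreactivity label reflects the gate a clone came from. Genes were amplified by colony PCR, sequenced by MiSeq 2 × 250 and filtered by CDR length.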

Row | Sequence | polyreactivity (PSR sort gate)
1 | QVQLVESGGGLVQAGGSLRLSCAASGRIFGFYALGWYRQAPGKEREFVASISVRGASTYADSVKGRFTISRDNAKNTVYLQMYSLKPEDTAVYYCNKAVANDDGLEYWGQGTQVTVSS | high polyreactivity
2 | QVQLVESGGGLVQAGGSLRLSCAASGFTFDIYAMGWYRQAPGKEWELVAAITSGGITNYADSVKGRFTISRDNAKNTVYLQMNSLKPEDTAVYYCAADEYLGFYVSHTDWTKYDYWGQGTQVTVSS | low polyreactivity
3 | QVQLVESGGGLVHAGGSLRLSCAASGFTSYENAMGWYRQAPGKEREFVAAISYIAGNTYYSDSVKGRFTISRDNAKNTVYLQMNSLKPEDTAVYYCAKTKYILPGNAYVNYDTTAYDYWGQGTQVTVSS | low polyreactivity
4 | QVQLVESGGGLVQAGGSLRLSCAASGRIVHQYAMGWNRQAPGKERELVAAITTRGTSTYYADSVKGRFTISRDNAKNTVYLQMNSLKPEDTAVYYCAAKFFGSVGHVAGDYWGQGTLVTVSS | high polyreactivity
5 | QVQLVESGGGLVQAGGSLRLRCAASGHIFGRYAMGWYRQAPGKERELVAAFTSGGTTYYADSVKGRFTISRDNAKNTVYLQMNSLKPEDTAVYYCAAKFQLKRYSSPFIWYDSWGQGTQVTVSS | high polyreactivity
6 | QVQLVESGGGLVQAGGSLRLSCAASGKTFRYNAMGWYRQAPGKERELVAAISRRGGSTYYADSVKGRFTISRDNAKNTVYLQMNSLKPEDTAVYYCNAGRTAENEYWGQGTQVTVSS | high polyreactivity
7 | QVQLVESGGGLVQAGGSLRLSCAASGRIIPYYAMGWYRQAPGKERELVAAISSSGGRTYYADSVKGRFTISRDNAKNTVYLQMNSLKPEDTAVYYCAAGFPTFGWDKVRFIMYYWGQGTQVTVSS | high polyreactivity
8 | QVQLVESGGGLVQAGGSLRLSCAASGSTFPSYAMGWYRQAPGKERELVAAINSGGGTNYADSVKGRFTISRDNAKNTVYLQMNSLKPEDTAVYYCAKSRYDYNKTEGGYWGQGTQVTVSS | low polyreactivity
9 | QVQLVESGGGLVQAGGSLRLSCAASGRIFESYAMGWYRQAPGKERELVAAISSGGGTTYYADSVKGRFTISRDNAKNTVYLQMNSLKPEDTAVYYCAAGPWFYYWGQGTQVTVSS | low polyreactivity
10 | QVQLVESGGGLVQAGGSLRLSCAASGLTFRYYAMGWYRQEPGKERELVATITRAGRTNYADSVKGRFTISRDNAKNTVYLQMNSLKPEDTAVYYCNAKQSGKYPRVVGYDYWGQGTQVTVSS | high polyreactivity
11 | QVQLQESGGGLVQAGGILRLSCASCGNIIPSAVMVWYRQALGKEREFVATINSGSNTYYADSVKGRFTISRDNAKITVYQQMNILKLEDTAVYYCAAYFKLPAWHTYWGQGTQVTVSS | low polyreactivity
12 | QVQLVESGGGLVQAGGSLRLTSAASGRIIDQNAMGWYRQAPGKERELVAAITSGGSTNYADSVKGRFTISRDNAKNTVYLQMNSLKPEDTAVYYCNSRDASRRYDYDFLERDSWGQGTQVTVSS | low polyreactivity
13 | QVQFVESGGGLVQAGGSLRLSCAASGSIFIYNAMGWYRQAPGTERELVAAISRGGTNTYYADSVKGRFTISRDNAKNTVYLQMNSLKPEDTAVYYCAARGGYIGSRNNYWGQGTQVTVSS | high polyreactivity
14 | QVQLVESGGGLLQAGGSLRLSCAASGSTFRAYTMGGYRPAPGKVREFVASITRSGGSTNYADSVKGRFTISRDNAKNTVYLQMNSLKPEDTAGYYCAAGYWRIHYQHFRSRDYWGQGTQVTVSS | high polyreactivity
15 | QVQLVESGGGLVHAGGSLLLSCSASRSIFDLYAMGGYRQAPGKERELVADISIADSTNYADSVKGRFTISRDNAKNTVYLKMNSLKPEDTAVYYCKDDVWWYCYEYDYWGQGTEVTVSS | low polyreactivity
16 | QLQLVKSWGGLVQAGGSLRLSSAASGLTFELYDMGWYRQAPGKERELVAAIDWSATRTYYADSVKGRFTISRDNAKNTVYLQMNSLKPEDTEVYYCNAEAVYEYWIYDYWGQGTQVTVSS | high polyreactivity
17 | QVQLVESGGGLVQAGGSLRLSCAASGFTFSPNAMGWYRQAPGKERELVAAIDWSGDRTYYADSVKGRFTISRDNAKNTVYLQMNSLKPEDTAVEYCNVVRRSPGDYSYYYWGQGTQVTVSS | low polyreactivity
18 | QVHLVESGGGLVQAGGSLRLSCAASGITFDLYAMGWYRQAPGKERELVAASTYYADSVKGRFTISRDNAKNTVYLQMNSLKPEDTAVYYCNTREPVTYDYWGQGTQVTVSS | high polyreactivity
19 | QVQLVESGGGLVQAGGSLRLSCAASGFTFNRNDMGWYRQAPGKERELVAAISTSGGRTYYADSVKGRFTISRDNAKNTVYLQMNSLKPEDTAVYYCAADGIYPVGVDYWGQGTQVTVSS | high polyreactivity
20 | QVQLVESGGGLVQAGGSLRLSCAASGRTFGPYAMGWYRQAPGKERELVAAISRSGGRTYYADSVKGRFSISRDNAKNTVYLQMNSLKPEETAVYYCNALYLSTRSGDYWGQGSQVTVSS | high polyreactivity
21 | QVQHVESGGGLVQAGGSLRLSCAASRSIFYYYAMGWYRQPPGKERELVAAISSDGTNYADSVKGRFTITRDNAKNTVYLQMNSLNPEDTAVYYCAKDHCTTSYDEGDYWGQGTQVTVSS | low polyreactivity
22 | QVQLVESWGGLVQAGGSLRLSCAASGSTFIQNAMGWYRQAPGKERELVAAITSGGGTNYADSVKGRFTISRDNAQNTVYLQMNSLKPEDTAVYYCAAEPFNYDDFWFGWEYQYEYWGQGTQVTVSS | low polyreactivity

Row | Sequence | polyreactivity (PSR sort gate)
23 | QVQLVESGGGLVQARGSLRLSCAASGITFRVNAMGWYRPAPGKERELVAAISRGGGSTYYADSVKGRFTISRDNAKNTVYLQMNSLKPEDTAVYFCAASYGAPYGYKRYYYWGQGTQVTVSS | high polyreactivity
24 | QVQLVESGGGLVQAGGSLRLSCAASGRTGVNAMGWYRQAPGKERGMVAAINTSVGRTYYADSVKGRFTISRDNAKNTVYLQMNSLKPEDTAVYYCNTDRLGAARYDYWGQGTQVTVSS | low polyreactivity
25 | QVQLVESGGGLVQAGGSLRLSCAASGLTVKWNAMGWYREAPGKETELFASITSGGSTNYADSVKGRFTISRDNAKNTVYLQMNSLKPEDTAFYYCNAEYYLFKRPYSYYYWGQGTQVTVSS | low polyreactivity
26 | QVQLVESGGGLVQAGGSLRLSCAASGRTFGHNAMGWYRQAPGKERELVAAISASGSNTYYADSVKGRFTISRDNAKNTVYLQMNSLKPEDTAVYYCAKQVYRPGQQSRYDYWGQGTQVTVSS | low polyreactivity
27 | QVQLVESGGGLVQAGGSLRLSCAASGIIFRRNAMGWYRQAPGKERELVAAIRWSGGSTYYADSVKGRFTISRDNAKNTVYLQMNSLKPEDTAVYYCAARYYRPRYEMDYWGQGTQVTVSS | low polyreactivity
28 | QVQLVESAGGLVQAGGSLRLSCAASGSTFPKYAMGWSRQAPGKERELVASISVTTGSTYYADSVKGRFTISRDNAKNTVYLQMNSLKPEDTAVYYCAKRTYSRKFRGAYNYGGQGTQVTVSS | high polyreactivity
29 | QVQLVESGGGLVQAGGSLRLSCAASGSTFIYYTMGWYRQAPGKERELVAAINGGGGSTYYADSVKGRFTISRDNAKNTVYLQMTSLKPEDTAVYYCATDPWHRAWGYGWGYNYWGQGTQVTVSS | low polyreactivity
30 | QVQLVESGGGLVQAGGSLRLSCAASGFIFPHYAMGGYRQAPGKERELIAAISKSGDSTYYADSVKGRFTISRDNAKNTVYLQMNSLKPEDTAVYYCARRGRSLRWKYDYWGQGTQVTVSS | low polyreactivity
31 | QVQLVESGGGLVQAGGSLRLSCAASGFTFWDYAMGWYRQAPGKERELVAAISSRGTRTYYADSVKGRFTISRDNAKNTVYFQMNSLKPEDTAVYYCATAIPDPDYIHNYWGQGTQVTVSS | high polyreactivity
32 | QVQLVESGGGLVQAGGSLRLSCAASGSTFYYNAMGWYRQAPGKERELVAAISGSGGSTYYADSVKGRFTISRDNAKNTVYLQMNSLKPEDTAVDYCAALYGPGREYDYWGQGTQVTVSS | low polyreactivity
33 | QVQLVESGVGLVQAGGSLRLLCAASGSIFTTYPMGWYRPAPGKERELVAAITSSSGSTYYADSVKGRFTISRDNAKNTVYLQMNSLKPEDTAVYYCNATYSAAVDYWGQGTQVTVSS | low polyreactivity
34 | QVQLVESGGCLVQAGGSLRLSCAASGSIFTTYAMGWYRQAPGKERELVAAISVSGSSTYYADSVKGRFTISRDNAKNTVYLQMNSLKPEDTAVYYCNKAFRSVRPRRRYDYWGQGTQVTVSS | low polyreactivity
35 | QVQLVESGGGLVQAGGSLRLSCAASGSTFAGYAMGWYRQAPGKERELVAAISWNGGSTYYADSVKGRFTISRDNAKNTVYLQMNSLKPEDTAVYYCAKARYYSWKGKGDYWGQGTQVTVSS | high polyreactivity
36 | QVQLVESGGGLVQAGGSLRLSCAASGRTFRDNAMGWYRQAPGKERELVAAISRRGGSTYYADSVKGRFTISRDNAKNTVYLQMNSLKPEDTAVYYCAADRPDGWVDYWGQGTQVTVSS | low polyreactivity
37 | QVQLVESGGGLVQAGGSLRLSCAASGGTFRRYAMGWYRQAPGKEREIVAAITISGGNTYYADSVKGRFTISRDNAKNTVYLQMNSLNPEDTAVYYCAADYAYNKYLSVEYWGQGTQVTVSS | low polyreactivity
38 | QVQLVESGGGLVQAGGSLRLSCAASGRIFRPYAMGWYRQAPGKERELVASISWRGSSTYYADSVKGRFTISRDNAKNTVYLQMNSLKPEDTAVYYCAARRYPTSGYAYWGQGTQVTVSS | high polyreactivity
39 | QVQLEESGGGLVQEGGSLRLSCAASGSIFTQNARGWNRQAPGKERELVAAITISGGGTYYADSVKGRFTISRDNAKNTVYFQMNSQKPEDTAVYHCAAAGRARYYYRYGYWGQVTQVTVSS | low polyreactivity
40 | QVQLEESGGGLVQAGGSLRLSCAASGSIFDVIAMGWYSQAPGNVRVLVAAISDSGGSTYYADSVKGRFTNSRDNAKKTVYLQMNSLKPEDTAVYYCNADWSWYNYYDFDYWGLGTQVTVSS | low polyreactivity
41 | QVQLVESGGGLVQAGGSLRLSCAASGITFYKKVMGWYRPAPGKEKELVAAISSSGGSTYYADSVKGRFTISRDNAKNTVYLQRNSLKPEDTAVYYCAADDPLYTPYEFDYWGQGTQVTVSS | low polyreactivity
42 | QLQLQEGGGGLLQAGGSLRLSCAASGYISYGDVMGWYRQAPGEERELVASIGLDATTNYADSVKGRFTISRDNSKNTVYLQMNSLKPEDTAVYYCPADRGAPFSLHYWGQGTQVTVSS | high polyreactivity
43 | QVQLVESGGGLVQAGGSLRLSCAASGITISVNDMGWYRQAPGKERELVAAISSGDSTNYADSVKGRFTISRDNAKNTVYLQMNSLKPEDTAVYYCAALEGSLTGWQTYDYWGQGTQVSVSS | low polyreactivity
